Test results taken from article PMC3676807, “A Chimeric UDP-Glucose Pyrophosphorylase Produced by Protein Engineering Exhibits Sensitivity to Allosteric Regulators” (International Journal of Molecular Sciences, 2013).

Experiments:
[1] = target: chimeric SmuGalU-Δ294EcoGlgC (Streptococcus mutans ATCC 25175 | Escherichia coli) (UniProt P0A6V1); experiment: SEC; gel filtration on Superdex 200 (Tricorn 5/200 column), calibrated with protein standards 44-669 kDa; mass of the native protein; buffer not stated
[2] = system: T1, SmuGalU-Δ294EcoGlgC (chimeric UDP-Glc PPase); experiment: Pi release after pyrophosphatase, Malachite Green; Hill fit; format: biochemical, Streptococcus mutans; Escherichia coli; conditions: UDP-Glc synthesis, no effector, 3 mM Mg2+, pH 8.0, 37 °C
T1 construct: gene galU; entire S. mutans GalU fused to the 137 C-terminal residues of E. coli GlgC (from P295); N-terminal His-tag kept; E. coli BL21 (DE3) pLysS; homotetramer ~200 kDa
Excerpt: Pi release after pyrophosphatase, Malachite Green; Hill fit on SmuGalU-Δ294EcoGlgC (chimeric UDP-Glc PPase)

[3] = target: UDP-glucose pyrophosphorylase from Streptococcus mutans (SmuGalU) (Streptococcus mutans ATCC 25175); experiment: SEC; gel filtration on Superdex 200 (Tricorn 5/200 column), calibrated with protein standards 44-669 kDa; mass of the native protein; buffer not stated
[4] = target: T1, SmuGalU-Δ294EcoGlgC (chimeric UDP-Glc PPase); experiment: Pi release after pyrophosphatase, Malachite Green; Hill fit; format: biochemical, Streptococcus mutans; Escherichia coli; conditions: allosteric activator; 1 mM Glc-1P, 1 mM UTP, 3 mM Mg2+, pH 8.0, 37 °C; read-out: A0.5
[5] = substrate: Cc1cn([C@H]2C[C@H](O)[C@@H](COP(=O)(O)OP(=O)(O)OP(=O)(O)O)O2)c(=O)[nH]c1=O; experiment: as above; format: biochemical, Streptococcus mutans; conditions: dTDP-Glc synthesis, 1 mM Glc-1P, 3 mM Mg2+, pH 8.0, 37 °C
[6] = substrate: O=c1ccn([C@@H]2O[C@H](COP(=O)(O)OP(=O)(O)OP(=O)(O)O)[C@@H](O)[C@H]2O)c(=O)[nH]1; experiment: as above; format: biochemical, Streptococcus mutans; conditions: UDP-Glc synthesis, saturating Glc-1P, 3 mM Mg2+, pH 8.0, 37 °C
[7] = substrate: O=P(O)(O)O[C@H]1O[C@H](CO)[C@@H](O)[C@H](O)[C@H]1O; experiment: as above; format: biochemical, Streptococcus mutans; conditions: UDP-Glc synthesis, saturating UTP, 3 mM Mg2+, pH 8.0, 37 °C

For “chimeric SmuGalU-Δ294EcoGlgC (from UniProt P0A6V1 295-431) (enzyme)”, the stoichiometry N [1] was 4.

`O=c1ccn([C@@H]2O[C@H](COP(=O)(O)OP(=O)(O)OP(=O)(O)O)[C@@H](O)[C@H]2O)c(=O)[nH]1` [UTP] was tested, and the Km ([2]; saturating Glc-1P) was 240 ± 20 µM.

For `O=P(O)(O)O[C@H]1O[C@H](CO)[C@@H](O)[C@H](O)[C@H]1O` [Glc-1P], the Km ([2]; saturating UTP) was 60 ± 5 µM.

With “UDP-glucose pyrophosphorylase from Streptococcus mutans (SmuGalU) (enzyme)” the stoichiometry N [3] was 4.

`O=P(O)(O)OC[C@H]1OC(O)(COP(=O)(O)O)[C@@H](O)[C@@H]1O` (some centres unmarked) [Fru-1,6-bisP] was tested, and the EC50 [4] was 2 mM.

`CC(=O)C(=O)O` [Pyr] gave an EC50 [4] of 30 mM.

`O=C(O)[C@H](O)COP(=O)(O)O` [3-PGA] was tested, and the EC50 [4] was 5.4 mM.

B1: SmuGalU (UDP-Glc PPase from S. mutans) (Streptococcus mutans UA159) (protein)
chain: MPSKKVRKAVIPAAGLGTRFLPATKALAKEMLPIVDKPTIQFIVEEALKSGIEDILVVTGKSKRSIEDHFDSNFELEYNLEQKGKTDLLKLVNDTTAINLHFIRQSHPRGLGDAVLQAKAFVGNEPFVVMLGDDLMDITDDKAIPLTRQLMNDYEETHASTIAVMEVPHEDVSAYGVIAPQGEGVSGLYSVDTFVEKPAPKEAPSNLAIIGRYLLTPEIFTILETQEPGAGNEVQLTDAIDTLNKTQRVFAREFKGKRYDVGDKFGFMKTSIDYALKHPQVKEDLKAYIIELGKKLDQKSTQKNSD
notes: full-length, N-terminal His-tag kept (pRSET-B), expressed in E. coli BL21 (DE3), Ni-NTA purified; homotetramer ~150 kDa; gene 921 bp
For B1, the K0.5 [5] was 0.54 mM, the K0.5 [6] was 0.68 ± 0.06 mM and the Vmax [6] was 62.1 µmol/min/mg. It also gave a Vmax/Km [6] of 91300 µL/min/mg, a K0.5 [7] of 0.090 ± 0.005 mM and a Vmax [7] of 62.1 µmol/min/mg. The Vmax/Km [7] was 690000 µL/min/mg.
